Assay results from article PMC3052743.

Biological target: T1, full-length gp130 with a C-terminal EYMPME (Glu-Glu) epitope tag, P40189
T1 chain: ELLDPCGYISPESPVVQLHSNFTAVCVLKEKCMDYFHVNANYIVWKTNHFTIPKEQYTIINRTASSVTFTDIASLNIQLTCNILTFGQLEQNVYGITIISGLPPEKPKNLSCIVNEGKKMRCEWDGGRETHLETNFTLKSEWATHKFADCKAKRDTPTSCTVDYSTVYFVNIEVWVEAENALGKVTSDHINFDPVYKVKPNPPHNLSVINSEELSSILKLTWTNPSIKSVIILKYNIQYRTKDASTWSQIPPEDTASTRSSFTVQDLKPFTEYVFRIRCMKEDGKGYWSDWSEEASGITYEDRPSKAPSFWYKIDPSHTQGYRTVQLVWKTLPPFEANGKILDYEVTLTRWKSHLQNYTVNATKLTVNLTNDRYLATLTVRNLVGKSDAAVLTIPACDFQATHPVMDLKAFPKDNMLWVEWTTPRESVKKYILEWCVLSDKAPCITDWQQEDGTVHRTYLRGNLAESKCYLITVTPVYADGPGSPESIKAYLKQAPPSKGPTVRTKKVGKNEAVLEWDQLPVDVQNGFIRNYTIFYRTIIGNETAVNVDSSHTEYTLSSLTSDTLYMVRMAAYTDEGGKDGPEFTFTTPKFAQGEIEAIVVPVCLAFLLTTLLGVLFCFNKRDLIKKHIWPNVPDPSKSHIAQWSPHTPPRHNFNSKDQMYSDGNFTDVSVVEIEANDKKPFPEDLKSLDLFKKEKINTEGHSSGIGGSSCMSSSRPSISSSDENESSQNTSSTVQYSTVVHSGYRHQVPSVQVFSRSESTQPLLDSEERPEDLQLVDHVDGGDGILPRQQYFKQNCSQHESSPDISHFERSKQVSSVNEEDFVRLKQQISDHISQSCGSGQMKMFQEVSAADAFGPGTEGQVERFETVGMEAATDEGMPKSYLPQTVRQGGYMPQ
Assay: SEC
Conditions: remark: other sources report otherwise

B1: full-length gp130 with a C-terminal EYMPME (Glu-Glu) epitope tag, P40189 23-918 (receptor)
chain: ELLDPCGYISPESPVVQLHSNFTAVCVLKEKCMDYFHVNANYIVWKTNHFTIPKEQYTIINRTASSVTFTDIASLNIQLTCNILTFGQLEQNVYGITIISGLPPEKPKNLSCIVNEGKKMRCEWDGGRETHLETNFTLKSEWATHKFADCKAKRDTPTSCTVDYSTVYFVNIEVWVEAENALGKVTSDHINFDPVYKVKPNPPHNLSVINSEELSSILKLTWTNPSIKSVIILKYNIQYRTKDASTWSQIPPEDTASTRSSFTVQDLKPFTEYVFRIRCMKEDGKGYWSDWSEEASGITYEDRPSKAPSFWYKIDPSHTQGYRTVQLVWKTLPPFEANGKILDYEVTLTRWKSHLQNYTVNATKLTVNLTNDRYLATLTVRNLVGKSDAAVLTIPACDFQATHPVMDLKAFPKDNMLWVEWTTPRESVKKYILEWCVLSDKAPCITDWQQEDGTVHRTYLRGNLAESKCYLITVTPVYADGPGSPESIKAYLKQAPPSKGPTVRTKKVGKNEAVLEWDQLPVDVQNGFIRNYTIFYRTIIGNETAVNVDSSHTEYTLSSLTSDTLYMVRMAAYTDEGGKDGPEFTFTTPKFAQGEIEAIVVPVCLAFLLTTLLGVLFCFNKRDLIKKHIWPNVPDPSKSHIAQWSPHTPPRHNFNSKDQMYSDGNFTDVSVVEIEANDKKPFPEDLKSLDLFKKEKINTEGHSSGIGGSSCMSSSRPSISSSDENESSQNTSSTVQYSTVVHSGYRHQVPSVQVFSRSESTQPLLDSEERPEDLQLVDHVDGGDGILPRQQYFKQNCSQHESSPDISHFERSKQVSSVNEEDFVRLKQQISDHISQSCGSGQMKMFQEVSAADAFGPGTEGQVERFETVGMEAATDEGMPKSYLPQTVRQGGYMPQ
stoichiometry N: 2
